Experiment: yeast display, Sf9 membrane polyspecificity reagent, FACS + sequencing; frameworks hold sequencing errors
Procedure, shortened: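 A nanobody's polyreactivity label depends on the gate it was sorted from. Yeast display cells were stained with 10% biotinylated, detergent-solubilized Sf9 membrane reagent for 1 hour at 4 °C, enriched on streptavidin microbeads and sorted by FACS. The low and high (top ~1%) gates were set on anti-HA fluorescence for expression and streptavidin fluorescence for reagent binding.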
With “QVQLEESGGGLLQAGGSLRLSCAATGSTFVTYAMGWYRQAPGKERELVAAISSGGGNTYYADSVKGRFTISRDNAMNSVYLQMHSLKPEDTAVYLCAADNPRSEYDYWGQGTQVTVSA” the “polyreactivity (PSR sort gate)” value was “high polyreactivity”.
With “QVQLEESGGGLLQAGGSLRLTCAASGFTFYYYAMGWYRLATGKERYLVAAISGGGGSTYYADSVKGRFTISRDNAKNTVYLPMNSMKPEDTAVYYCAAVGSWRYNYDYDYWGQGSQVTVSS” the “polyreactivity (PSR sort gate)” value was “high polyreactivity”.
In the case of “QVQLEESGGGLVHAGGSLRLICAASGSTFSTYAMRWYRQAPGKERELVARITRGGSTNYADSVKGRFTISRDNAMNTVYLQMNCLKPDDTAVYYFSAGIRSGRKYDYWGQGTQVTVSS”, the “polyreactivity (PSR sort gate)” value is reported as “low polyreactivity”.
For “QVQLEESGGGLVKAGGSLRLSSAASGITIGIYLIGWYRQAPGTESEFVATISRSDDNTYYADSVMGRFTISRDNAKNTVYLQMNSLKPEDSAVYYCPADGVISAWYSSRDDYWGKGTQVTVSS”, the “polyreactivity (PSR sort gate)” value was “low polyreactivity”.
With “QVQLEESGGGLVQAAGRLRVSCAASGYIYGYAMGWYKQAPAKEMELVAAITRGGGRTYYADSVKGRFTISRDNAKNTVYFQMHSLKPVDTAVYYCAVAANRGKGFYEYYHWGQGTQVTVSS” the “polyreactivity (PSR sort gate)” value was “high polyreactivity”.
In the case of “QVQLEESGGGLVQAAGSLRLRCAASGSTLTFNAMGWYRHAPGKERELVAAISWSDTDTYYADSVKGRFTISRDNAKNTVYLQMNSLKPEDTAVYYCASTLSAYEMDYWGQGTQVTVSS”, the “polyreactivity (PSR sort gate)” value is reported as “low polyreactivity”.
For “QVQLEESGGGLVQAGGILRLSCAASGSTFVNNAMGWYRQAPGKERELVAAITSGSRTKYADSVKGRFTMSLDNAKYTVYFQMNSLQPEDTAVYYWNTMRVGWGQGTQVTVSS”, the “polyreactivity (PSR sort gate)” value was “high polyreactivity”.
In the case of “QVQLEESGGGLVQAGGRLRLSCAASGRIFAVNAMGWYRQAPGKERELVASITSRGGSTYYADSVYGRFTISRDNAKNTVYLQMPSLKPEDTAVDYCASPYYSLTTNDYDYSGQGTQVTVSS”, the “polyreactivity (PSR sort gate)” value is reported as “high polyreactivity”.
In the case of “QVQLEESGGGLVQAGGRLRLSCAASGSNTRTYAMGWYRQAHGKERELVAAISSSVCRTYYADSVKGRFTISRDNEKNTVYLQMNSLKPEDTAVYYCNSRTYSYRGYNYWGQGTQVTVSS”, the “polyreactivity (PSR sort gate)” value is reported as “high polyreactivity”.
In the case of “QVQLEESGGGLVQAGGRLRLSCAASGSTFRNYAMGWNITAAGKERELVAAISTNGGRTFYADSVKGRFTISRDNAKNTVYLQMNSLKPEDNAVYYCAAEYGLYAPGYYYWGQGTQVTVSS”, the “polyreactivity (PSR sort gate)” value is reported as “low polyreactivity”.
In the case of “QVQLEESGGGLVQAGGRLRLSCAASGSTYSEYAMGWSRKAPGKQRELVAAINWSGGSTYYADSVKGRFTISRDNAKNTVYLQMNSLKPEDTAVYYCNKVFRHHWYPAYNSWGQGTQVTVSS”, the “polyreactivity (PSR sort gate)” value is reported as “low polyreactivity”.
In the case of “QVQLEESGGGLVQAGGSHRLSCAASGSIIYPYTMGWYRQAPRKERELVAAISGGGRTYYADSVKGRFTISRDNAKNTVYLQMNSLIPEDTAVYYCAARRGYPSGYEYWGQGTQVSVSS”, the “polyreactivity (PSR sort gate)” value is reported as “high polyreactivity”.
For “QVQLEESGGGLVQAGGSIRLSCAASGFIFYYNAMGWYRQAPGKERELVASIRSGGSTNYADSVKGRFTISRDNAKNTVYLQMNSLKPEDTAVYYCAADISRWSHRSKEMYYWGQGTQVTVSS”, the “polyreactivity (PSR sort gate)” value was “low polyreactivity”.
In the case of “QVQLEESGGGLVQAGGSLPLSCAASGVIFGYYAMGWYIQAPGKERELVAAISKSGGSTYYADSVKARFTISRDNAKNTVYVQMNSLIPEDTAVYDCNADPRTASDQLEFDYWGQGTQVNVSS”, the “polyreactivity (PSR sort gate)” value is reported as “low polyreactivity”.
In the case of “QVQLEESGGGLVQAGGSLRIRCAASGSTFVGYAMGWYRQAPGKERELVAAITSSGGRTYYADSVKGRFTISRDNAKNTVYLQMNSLKPEDTAVYYCAAPRARIGGSYDYWGQGTQVTGSS”, the “polyreactivity (PSR sort gate)” value is reported as “high polyreactivity”.
With “QVQLEESGGGLVQAGGSLRLICAASGRIFDYYTMGWYRQAPGKERELVAAISSSGGSTYYADSVKGRFTISRDNAKNTVYLQMNSLKPEDPAVYYCNASVINEMNYWGQGTQVTVSS” the “polyreactivity (PSR sort gate)” value was “low polyreactivity”.
For “QVQLEESGGGLVQAGGSLRLICAASGRIFWLNAMGWYRQAPGKEREFVASITYGSDSTYYADSVKGRFTISRDNAKNTVYLQMNSLKPEDTAVYYCNREGWHYGPYVYWGQGTQVTVSS”, the “polyreactivity (PSR sort gate)” value was “low polyreactivity”.
In the case of “QVQLEESGGGLVQAGGSLRLICAASGRNFGYYPMGWYRQAPGKERELVAAISGSGGTTYYADSVKGRFTISRDIAKNTVYLQMISLKPEDTAVYYCNAGFGYYWHRGFFQYDYWGQGTQVTVSS”, the “polyreactivity (PSR sort gate)” value is reported as “high polyreactivity”.
With “QVQLEESGGGLVQAGGSLRLICAASGSIFYYKYAMGGYRQAPGKERELVAAITSTGGTTYYADSVKGRFTISRDNAKNTVYLQMNSLKPEDTAVYYCAALAPYIGGVDYDYWGQGTQVTVSS” the “polyreactivity (PSR sort gate)” value was “low polyreactivity”.
In the case of “QVQLEESGGGLVQAGGSLRLICAAYGIIFYIYTMGWYRQEPVKERELVAAINPGGSRYYADSVKGRFTISRDNAKNTVYLQMNSLKPEDTAVYYCNKLSYGRSGYWGQGTEVTVSS”, the “polyreactivity (PSR sort gate)” value is reported as “high polyreactivity”.
In the case of “QVQLEESGGGLVQAGGSLRLRCAASGRTFHAYVMGWYRQAPGKERELVADISSGGDTYADSVKGRFTISRDNAKNTVYLQMNSLKPEDSAVYYCAVDLIQDESGYWGQGTQVNVSS”, the “polyreactivity (PSR sort gate)” value is reported as “low polyreactivity”.
For “QVQLEESGGGLVQAGGSLRLSCAASGFIFGYYAMGSYRQAPGKERELVAAISKSGGRTRYADSVKGRFTISRDNAKNTVYLQMNSLKPVDTAVYYCATYDPARSTQGYDYWGQGTQVTVSS”, the “polyreactivity (PSR sort gate)” value was “high polyreactivity”.
With “QVQLEESGGGLVQAGGSLRLSCAASGFIIHLYGMGWYRQAPGKERELVAAISSGGRTYYADSVKGRFTISRDNAKNTVDLQMNSMIPEVTAVSYSAVFVAYLYSYYYWGQGTQVTVSS” the “polyreactivity (PSR sort gate)” value was “low polyreactivity”.
In the case of “QVQLEESGGGLVQAGGSLRLSCAASGFIVYYYAMGWYRQAPGKERELVAAISSGDRTYYADSVKGRFTISRDNAKNTVYLQMNSLKREDTAVYYCNALSRNTQLYDYWGQGTQVTVSS”, the “polyreactivity (PSR sort gate)” value is reported as “high polyreactivity”.
In the case of “QVQLEESGGGLVQAGGSLRLSCAASGFTFDANAMGWYRQAPGKERELVAAISSGGGSTYYADSVKGRFTISRDNPKNTVYLQMNSLKPEDTAVYYCAKVYLVYKSYPYDYWGLGTQVTVSS”, the “polyreactivity (PSR sort gate)” value is reported as “high polyreactivity”.
For “QVQLEESGGGLVQAGGSLRLSCAASGFTFDVYAMGWYRQAPGKERELVAAIDSGGSTNYADSVKGRFTISRDNAKNTVYLQMNSLKPEDTAVYYCAVRYWKTLSHFSYDYWGQGTQVTVSS”, the “polyreactivity (PSR sort gate)” value was “low polyreactivity”.
In the case of “QVQLEESGGGLVQAGGSLRLSCAASGFTLPANGMGWYRQAPGKERELVAAISFIAGSTYYADSVKGRFTISRDNAKNTVYLQMNSLKPEDTAVYYCSTQFPPSTIYDYWGQGTQVTVSS”, the “polyreactivity (PSR sort gate)” value is reported as “low polyreactivity”.
In the case of “QVQLEESGGGLVQAGGSLRLSCAASGGILDTYAMGWYRPAPWKETELVAANTSGCNTNYADSVKGRFTISRDNAKNTVYLQMISLKQEDTEVYYCNLVTWYYVFRPWEYDYCGQGTQVTVSS”, the “polyreactivity (PSR sort gate)” value is reported as “low polyreactivity”.
In the case of “QVQLEESGGGLVQAGGSLRLSCAASGGNFPVNAIGWYRQAPGKERELVATITYDGGNTYYADSVKGRFTISRDNAKNTVYLQMNSLKPEDTAVYYCAARTPQRSEWTKYGYWGQGTLVTVSS”, the “polyreactivity (PSR sort gate)” value is reported as “low polyreactivity”.
With “QVQLEESGGGLVQAGGSLRLSCAASGGTFDYYAMGWYRQAPRKERELVAVINWSGGRTYYADSVKGRFTISRDNAKNTVYLQMNSLKPEDTAVYYCAAQRPPGQTWNRDYWGQGTQVTVSS” the “polyreactivity (PSR sort gate)” value was “high polyreactivity”.

Reference: the nanobody polyreactivity screen of Harvey et al. (2022)
